Test results from the supplement of paper PMC9112550, “Optimization of the antimicrobial peptide Bac7 by deep mutational scanning” (BMC Biology, 2022).

Tested on: Escherichia coli TOP10
Test: shrunken log2 fold change of peptide-encoding DNA abundance (4.5 h post-induction vs induction); higher = less antimicrobial activity (less host growth inhibition)
Conditions: time post-induction: 4.5 h; library: site-saturation at positions 5, 18, 19, 20
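Note: peptides expressed intracellularly from a pBAD plasmid library in pooled LB shake-flask culture, induced with 0.3% L-arabinose, DNA abundance read by NGS, three biological replicates, DESeq2 with apeglm shrinkage.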

| Sequence | shrunken log2 fold change |
| --- | --- |
| RRIRERPPRLPRPRPRPIILPRP | -0.136 |
| RRIRLRPPRLPRPRPRPAAVPRP | 0.376 |
| RRIRTRPPRLPRPRPRPGQEPRP | -0.184 |
| RRIRKRPPRLPRPRPRPYCSPRP | -0.0347 |
| RRIRPRPPRLPRPRPRPYIYPRP | -0.518 |
| RRIRKRPPRLPRPRPRPAMGPRP | 0.14 |
| RRIRVRPPRLPRPRPRPSNAPRP | 0.111 |
| RRIRIRPPRLPRPRPRPRVSPRP | 0.0983 |
| RRIRYRPPRLPRPRPRPMGDPRP | -0.0018 |
| RRIRTRPPRLPRPRPRPAVYPRP | -0.181 |
| RRIRLRPPRLPRPRPRPPIPPRP | 0.316 |
| RRIRSRPPRLPRPRPRPLKEPRP | 0.176 |
| RRIRARPPRLPRPRPRPEFCPRP | 0.83 |
| RRIRHRPPRLPRPRPRPHPYPRP | -0.462 |
| RRIRRRPPRLPRPRPRPRSHPRP | -0.033 |
| RRIRARPPRLPRPRPRPSFRPRP | -0.262 |
| RRIRDRPPRLPRPRPRPAMWPRP | 1.24 |
| RRIRVRPPRLPRPRPRPMCVPRP | 0.103 |
| RRIRCRPPRLPRPRPRPWIGPRP | -0.775 |
| RRIRERPPRLPRPRPRPDCPPRP | -0.559 |
| RRIRTRPPRLPRPRPRPEIRPRP | -0.0371 |

| Sequence | shrunken log2 fold change |
| --- | --- |
| RRIRFRPPRLPRPRPRPCNGPRP | -0.212 |
| RRIRLRPPRLPRPRPRPFWRPRP | 0.252 |
| RRIRRRPPRLPRPRPRPCWKPRP | 0.0297 |
| RRIRVRPPRLPRPRPRPSYKPRP | -0.581 |
| RRIRIRPPRLPRPRPRPWKSPRP | -0.0108 |
| RRIRWRPPRLPRPRPRPEPTPRP | 0.857 |
| RRIRRRPPRLPRPRPRPLLPPRP | 0.574 |
| RRIRIRPPRLPRPRPRPNFVPRP | 0.0196 |
| RRIRGRPPRLPRPRPRPIKKPRP | 0.00565 |
| RRIRGRPPRLPRPRPRPDIGPRP | 0.663 |
| RRIRIRPPRLPRPRPRPTPAPRP | 0.198 |
| RRIRVRPPRLPRPRPRPWIWPRP | 0.00605 |
| RRIRNRPPRLPRPRPRPKNLPRP | 0.13 |
| RRIRQRPPRLPRPRPRPLFGPRP | 0.107 |
| RRIRNRPPRLPRPRPRPLEPPRP | 0.0692 |
| RRIRPRPPRLPRPRPRPDMTPRP | -0.293 |
| RRIRYRPPRLPRPRPRPNGRPRP | -0.311 |
| RRIRVRPPRLPRPRPRPEWNPRP | -0.272 |
| RRIRARPPRLPRPRPRPGINPRP | -0.242 |
| RRIRWRPPRLPRPRPRPPQEPRP | 0.567 |
| RRIRARPPRLPRPRPRPTSWPRP | 0.756 |

| Sequence | shrunken log2 fold change |
| --- | --- |
| RRIRKRPPRLPRPRPRPPFYPRP | 0.229 |
| RRIRTRPPRLPRPRPRPWMWPRP | 0.101 |
| RRIRGRPPRLPRPRPRPRFTPRP | 0.582 |
| RRIRRRPPRLPRPRPRPAPTPRP | 0.793 |
| RRIRHRPPRLPRPRPRPRGAPRP | 0.152 |
| RRIRVRPPRLPRPRPRPCEDPRP | -0.0254 |
| RRIRIRPPRLPRPRPRPMKVPRP | -0.00968 |
| RRIRPRPPRLPRPRPRPECKPRP | -0.352 |
| RRIRHRPPRLPRPRPRPICAPRP | -0.0362 |
| RRIRFRPPRLPRPRPRPNMIPRP | -0.495 |
| RRIRARPPRLPRPRPRPRQTPRP | 0.535 |
| RRIRHRPPRLPRPRPRPHWTPRP | -0.00191 |
| RRIRARPPRLPRPRPRPSFEPRP | 0.327 |
| RRIRPRPPRLPRPRPRPSYQPRP | -0.493 |
| RRIRIRPPRLPRPRPRPFMRPRP | 0.0516 |
| RRIRWRPPRLPRPRPRPAMYPRP | -0.112 |
| RRIRNRPPRLPRPRPRPRKEPRP | -0.0425 |
| RRIRDRPPRLPRPRPRPSQHPRP | -0.343 |
| RRIRARPPRLPRPRPRPLMQPRP | 0.223 |
| RRIRARPPRLPRPRPRPDDVPRP | 0.0875 |
